Results: PMC11870458

Experiments:
[1] = target: VsCoV-a7 RBD-human IgG Fc fusion (VsCoV-a7 (bat MERSr-CoV from Vespertilio sinensis, Japan)); test: BLI
[2] = target: HsItaly2011 RBD-human IgG Fc fusion (HsItaly2011 (bat MERSr-CoV from Hypsugo savii, Italy)); test: BLI

Substance | Kd [1] [nM] | Kd [2] [nM]
soluble dimeric E.fus ACE2 ectodomain (domain or fragment) | 816 | –
soluble dimeric R.nor ACE2 ectodomain (from UniProt Q5EGZ1 18-740) (domain or fragment) | – | 121
